Publication PMC10066265, “Inhibitor-3 inhibits Protein Phosphatase 1 via a metal binding dynamic protein–protein interaction” (Nature Communications, 2023)
Several values for one entry are separate records, joined by “and”; a condition that tells them apart may be missing. Equal values may be shown once. Read-outs that look alike come from different tables or passages of the source.

Assays:
[1] = biological target: T1, PP1_7-330 (Homo sapiens, UniProt P62136)
T1 construct: gene PPP1CA; His6-PP1α7-330, E. coli expressed, Mn2+ loaded
Procedure: SPR measurements were performed using a 4-channel Reichert 4SPR instrument fitted with autosampler and a degassing pump (Reichert Technologies). SPR buffers containing 20 mM Tris pH 8.0, 500 mM NaCl, 1 mM MnCl2, 0.5 mM TCEP, 0.05% Tween-20 were prepared, sterile filtered, and degassed in autoclaved glassware prior to each experiment. Running buffer was used to prime and run both the sample and syringe pump reservoirs. Gold sensorchips modified with Ni-NTA-functionalized polycarboxylate (NiH[…]; XanTec Bioanalytics GmbH) were installed and equilibrated under flow conditions (100 μL/min) for ≥60 min at 25 °C. Surface contaminants were cleared from the chip surface by a pair of 120 μL injections of 2 M NaCl and 10 mM NaOH during the equilibration step. […] The sensorchip was allowed to equilibrate for 5 min at 50 μL/min prior to initiation of experiments. The concentrations of I3_1-126 and its variants ([…] and […]3_79-91) were measured using AccuOrange^TM Protein Quantification Kit (Biotium). For measurements, I3_1-126 and its variants were diluted into running buffer from concentrated stocks, and a series of injections at different I3 concentrations were applied. […] For all experiments, buffer blank injections were included at an interval of two sample injections to achieve double referencing. Technical replicates were obtained by utilizing three channels per chip coupled with stripping of the sensorchip with 350 mM EDTA pH 8.0, reconditioning the surface with 10 mM NaOH to remove non-specifically bound PP1 aggregates, charging the surface with 10 mM NiSO4, and reloading fresh PP1 onto the surface. All replicates were generated with freshly diluted PP1 and I3. Kinetic parameters were determined by curve-fitting using TraceDrawer software (Ridgeview Instruments AB) fit with a one-to-one one state or one-to-one two state model. Statistical analyses of SPR data were performed using Microsoft Excel.

[2] = biological target: T1, PP1_7-330; details: SD, n = 3
[3] = biological target: T2, His6-PP1α_(7-330) (UniProt P62136 7-330); assay: cell-based or functional assay
[4] = biological target: T2, His6-PP1α_(7-330); assay: SPR; His6-PP1 captured on a Ni-NTA sensorchip (NiHC200M), I3 variants injected; 25 °C; 20 mM Tris pH 8.0, 500 mM NaCl, 1 mM MnCl2, 0.5 mM TCEP, 0.05% Tween-20; one-to-one one state or one-to-one two state model; details: both partners purified
[5] = biological target: T3, PP1α_(7-330) (UniProt P62136 7-330); assay: SPR; His6-PP1 captured on Ni-NTA chip (NiHC200M), I3 variants injected; 25 °C; 20 mM Tris pH 8.0, 500 mM NaCl, 1 mM MnCl2, 0.5 mM TCEP, 0.05% Tween-20; one-to-one one state or one-to-one two state model (TraceDrawer); details: both partners purified
T3 construct: Protein Phosphatase 1 alpha (PP1α), residues 7-330; His6-PP1 was captured on the Ni-NTA sensor chip as the SPR ligand; Mn2+ in all buffers; also called Protein Phosphatase 1; His6-PP1; source: E. coli, purified (Ni-NTA, SEC)
T3 sequence (P62136 7-330): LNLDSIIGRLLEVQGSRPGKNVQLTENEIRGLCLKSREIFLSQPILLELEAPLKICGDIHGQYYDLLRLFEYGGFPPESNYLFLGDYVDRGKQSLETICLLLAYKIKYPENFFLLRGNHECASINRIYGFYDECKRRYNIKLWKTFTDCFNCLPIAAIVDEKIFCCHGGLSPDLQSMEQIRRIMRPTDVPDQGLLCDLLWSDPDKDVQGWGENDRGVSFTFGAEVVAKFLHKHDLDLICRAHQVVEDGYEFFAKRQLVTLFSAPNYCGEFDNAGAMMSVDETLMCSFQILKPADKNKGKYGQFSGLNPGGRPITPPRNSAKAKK

T1 sequence (P62136 7-330): as above
T2 sequence (P62136 7-330): as above

I3 1-126 C60S/C61S/C62S [SSS: I3_1-126 C60S/C61S/C62S]
Kd ([1]; n = 3): 300 ± 23 nM

I3 1-126 T29A/I30A/K31A [SILKdead: I3_1-126 T29A/I30A/K31A]
Kd ([1]; n = 3): 13.1 ± 2.8 nM

I3 1-126 with KVEW 40-43 mutated to KAEA [RVxFdead: I3_1-126 ^40KAEA^43]
Kd ([1]; n = 4): 3460 ± 531 nM

human Inhibitor-3 (PPP1R11) full length, residues 1-126 [I3_1-126]
Kd ([1]; n = 3): 15.7 ± 2 nM | IC50 [2]: 71 ± 6 nM

B1: Inhibitor-3 I3_(1-126) (full-length) (natural protein, human, UniProt O60927 1-126, looked up)
chain: MAEAGAGLSETVTETTVTVTTEPENRSLTIKLRKRKPEKKVEWTSDTVDNEHMGRRSSKCCCIYEKPRAFGESSTESDEEEEEGCGHTHCVRGHRKGRRRATLGPTPTTPPQPPDPSQPPPGPMQH
notes: PPP1R11), human, 126 aa, residues 1-126; Uniformly 15N-labelled in the NMR experiment, unlabelled in SPR; also called PPP1R11; YPI1; source: E. coli BL21 (DE3), purified (Ni-NTA, TEV, heat 95 °C, SEC); not shown: His6, N-terminal, cleaved; MBP, N-terminal, cleaved
IC50 of PP1 inhibition (dephosphorylation of the H3pT3 peptide, released Pi) [3]: 71 nM | Kd [4]: 15.7 ± 2 nM

B2: RVxF_(dead): I3_(1-126) 40KAEA43 (natural protein, human, UniProt O60927 1-126, looked up)
chain: MAEAGAGLSETVTETTVTVTTEPENRSLTIKLRKRKPEKKAEATSDTVDNEHMGRRSSKCCCIYEKPRAFGESSTESDEEEEEGCGHTHCVRGHRKGRRRATLGPTPTTPPQPPDPSQPPPGPMQH
notes: PPP1R11), human, residues 1-126; Uniformly 15N-labelled in the NMR experiment, unlabelled in SPR; also called I3_(RAXA) variant; I3 RVxF_(dead); source: E. coli BL21 (DE3), purified (Ni-NTA, TEV, heat 95 °C, SEC); not shown: His6, N-terminal, cleaved; MBP, N-terminal, cleaved
Kd [4]: 3460 ± 531 nM

B3: SILK_(dead): I3_(1-126) T29A/I30A/K31A (natural protein, human, UniProt O60927 1-126, looked up)
chain: MAEAGAGLSETVTETTVTVTTEPENRSLAAALRKRKPEKKVEWTSDTVDNEHMGRRSSKCCCIYEKPRAFGESSTESDEEEEEGCGHTHCVRGHRKGRRRATLGPTPTTPPQPPDPSQPPPGPMQH
notes: PPP1R11), human, residues 1-126; also called I3_(1-126) 29AAA31; source: E. coli BL21 (DE3), purified (Ni-NTA, TEV, heat 95 °C, SEC); not shown: His6, N-terminal, cleaved; MBP, N-terminal, cleaved
Kd [4]: 13.1 ± 2.8 nM

B4: SSS: I3_(1-126) C60S/C61S/C62S (natural protein, human, UniProt O60927 1-126, looked up)
chain: MAEAGAGLSETVTETTVTVTTEPENRSLTIKLRKRKPEKKVEWTSDTVDNEHMGRRSSKSSSIYEKPRAFGESSTESDEEEEEGCGHTHCVRGHRKGRRRATLGPTPTTPPQPPDPSQPPPGPMQH
notes: PPP1R11), human, residues 1-126; also called I3_(1-126)SSS; source: E. coli BL21 (DE3), purified (Ni-NTA, TEV, heat 95 °C, SEC); not shown: His6, N-terminal, cleaved; MBP, N-terminal, cleaved
Kd [4]: 300 ± 23 nM

B5: SILK_(deletion): I3_(38-68) (Δ27-37) (domain or fragment, human, UniProt O60927 38-68, looked up)
chain: EKKVEWTSDTVDNEHMGRRSSKCCCIYEKPR
notes: PPP1R11), human, residues 38-68; source: E. coli BL21 (DE3), purified (Ni-NTA, TEV, heat 95 °C, SEC); not shown: His6, N-terminal, cleaved; MBP, N-terminal, cleaved
Kd [4]: 15.2 ± 2.5 nM

B6: SILK_(dead): I3_(27-68) T29A/I30A/K31A (domain or fragment, human, UniProt O60927 27-68, looked up)
chain: SLAAALRKRKPEKKVEWTSDTVDNEHMGRRSSKCCCIYEKPR
notes: PPP1R11), human, residues 27-68; also called I3_(27-68) 29AAA31; source: E. coli BL21 (DE3), purified (Ni-NTA, TEV, heat 95 °C, SEC); not shown: His6, N-terminal, cleaved; MBP, N-terminal, cleaved
Kd [4]: 16.8 ± 2.8 nM

B7: I3_(1-126) (FL, full-length) (natural protein, human, UniProt O60927 1-126, looked up)
chain: MAEAGAGLSETVTETTVTVTTEPENRSLTIKLRKRKPEKKVEWTSDTVDNEHMGRRSSKCCCIYEKPRAFGESSTESDEEEEEGCGHTHCVRGHRKGRRRATLGPTPTTPPQPPDPSQPPPGPMQH
notes: PPP1R11), human, 126 aa, residues 1-126; also called PPP1R11; source: E. coli BL21 (DE3), purified (Ni-NTA, TEV cleavage, heat, SEC); not shown: His6, N-terminal, cleaved; MBP, N-terminal, cleaved
Kd [5]: 17.7 nM and 13.7 nM and 15.6 nM

B8: RVxF_(dead): I3_(1-126) 40KAEA43 (natural protein, human, UniProt O60927 1-126, looked up)
chain: MAEAGAGLSETVTETTVTVTTEPENRSLTIKLRKRKPEKKAEATSDTVDNEHMGRRSSKCCCIYEKPRAFGESSTESDEEEEEGCGHTHCVRGHRKGRRRATLGPTPTTPPQPPDPSQPPPGPMQH
notes: PPP1R11), human, residues 1-126, 40KVEW43 mutated to 40KAEA43; also called I3_1-126_KAEA; I3_(RAXA); source: E. coli BL21 (DE3), purified (Ni-NTA, TEV cleavage, heat, SEC); not shown: His6, N-terminal, cleaved; MBP, N-terminal, cleaved
Kd [5]: 3390 nM and 3260 nM and 2970 nM and 4210 nM

B9: SILK_(dead): I3_(1-126) T29A/I30A/K31A (natural protein, human, UniProt O60927 1-126, looked up)
chain: MAEAGAGLSETVTETTVTVTTEPENRSLAAALRKRKPEKKVEWTSDTVDNEHMGRRSSKCCCIYEKPRAFGESSTESDEEEEEGCGHTHCVRGHRKGRRRATLGPTPTTPPQPPDPSQPPPGPMQH
notes: PPP1R11), human, residues 1-126, T29A/I30A/K31A; also called I3_1-126_SLAAA; I3_(1-126) 29AAA31; source: E. coli BL21 (DE3), purified (Ni-NTA, TEV cleavage, heat, SEC); not shown: His6, N-terminal, cleaved; MBP, N-terminal, cleaved
Kd [5]: 16.3 nM and 11.9 nM and 11.2 nM

B10: SSS: I3_(1-126) C60S/C61S/C62S (natural protein, human, UniProt O60927 1-126, looked up)
chain: MAEAGAGLSETVTETTVTVTTEPENRSLTIKLRKRKPEKKVEWTSDTVDNEHMGRRSSKSSSIYEKPRAFGESSTESDEEEEEGCGHTHCVRGHRKGRRRATLGPTPTTPPQPPDPSQPPPGPMQH
notes: PPP1R11), human, residues 1-126, C60S/C61S/C62S; also called I3_1-126_SSS; I3_(1-126)SSS; source: E. coli BL21 (DE3), purified (Ni-NTA, TEV cleavage, heat, SEC); not shown: His6, N-terminal, cleaved; MBP, N-terminal, cleaved
Kd [5]: 295 nM and 330 nM and 287 nM and 304 nM | koff [5]: 0.0957 s⁻¹ and 0.103 s⁻¹ and 0.093 s⁻¹ and 0.0972 s⁻¹ | kon [5]: 325000 M⁻¹ s⁻¹ and 313000 M⁻¹ s⁻¹ and 321000 M⁻¹ s⁻¹

B11: SILK_(dead): I3_(27-68) T29A/I30A/K31A (domain or fragment, human, UniProt O60927 27-68, looked up)
chain: SLAAALRKRKPEKKVEWTSDTVDNEHMGRRSSKCCCIYEKPR
notes: PPP1R11), human, residues 27-68, T29A/I30A/K31A; also called I3_27-68_SLAAA; I3_(27-68) 29AAA31; source: E. coli BL21 (DE3), purified (Ni-NTA, TEV cleavage, heat, SEC); not shown: His6, N-terminal, cleaved; MBP, N-terminal, cleaved
Kd [5]: 13.5 nM and 18.2 nM and 18.6 nM

B12: SILK_(deletion): I3_(38-68) (Δ27-37) (domain or fragment, human, UniProt O60927 38-68, looked up)
chain: EKKVEWTSDTVDNEHMGRRSSKCCCIYEKPR
notes: PPP1R11), human, residues 38-68; also called SILKdead: I338-68 (Δ27-37); source: E. coli BL21 (DE3), purified (Ni-NTA, TEV cleavage, heat, SEC); not shown: His6, N-terminal, cleaved; MBP, N-terminal, cleaved
Kd [5]: 14.8 nM and 17.9 nM and 13 nM
